The target in the assay is T1, His-Bub1TPR (fission yeast Bub1 residues 22-184) (S. pombe, UniProt O94751 22-184).
T1 construct: Bub1, S. pombe, TPR domain, residues 22-184; Cloned into pET-DUET; also called recombinant Bub1-TPR; source: E. coli ArcticExpress, purified (cobalt IMAC, dialysis); not shown: His, N-terminal, kept
T1 sequence (looked up): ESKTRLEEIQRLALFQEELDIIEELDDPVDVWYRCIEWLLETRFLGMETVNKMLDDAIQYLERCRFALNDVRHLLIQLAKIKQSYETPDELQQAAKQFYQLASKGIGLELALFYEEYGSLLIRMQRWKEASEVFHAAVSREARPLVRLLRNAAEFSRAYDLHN
As to the kind of experiment: SEC; Superdex 200 increase 10/300 in 50 mM Tris pH 8.0, 150 mM NaCl, 5% glycerol, 2 mM DTT; proteins alone and mixed, fractions on SDS-PAGE. The settings on record: both partners purified. (In gel filtration, larger molecules generally elute earlier.)

B1: His-GFP-Mad3TPR (fission yeast Mad3 residues 44-201) (domain or fragment, S. pombe, UniProt O59767 44-201, looked up)
chain: TEKEVAGLQKERMGHERKIETSESLDDPLQVWIDYIKWTLDNFPQGETKTSGLVTLLERCTREFVRNPLYKDDVRYLRIWMQYVNYIDEPVELFSFLAHHHIGQESSIFYEEYANYFESRGLFQKADEVYQKGKRMKAKPFLRFQQKYQQFTHRWLEF
notes: Mad3, S. pombe, TPR domain, residues 44-201; Cloned into the 9GFP (N-terminal His-GFP tag) LIC vector; source: E. coli ArcticExpress, purified (cobalt IMAC, dialysis); not shown: His, N-terminal, kept; GFP, N-terminal, kept
On to B1, for which the binding result was “binds”.

(Values after article PMC6657678, “The Bub1-TPR Domain Interacts Directly with Mad3 to Generate Robust Spindle Checkpoint Arrest” (Current Biology, 2019).)
